{"source": "patent US20260028402A1", "about": "(published 2026)", "key": {"[1]": {"molecular_target": "T1, full-length human CD100 protein HuCD100 on cells (human, UniProt Q92854 22-862)", "experiment": "FACS"}, "[2]": {"molecular_target": "T2, full-length mouse CD100 protein MusCD100 on cells (mouse, UniProt O09126 24-861)", "T2 chain": "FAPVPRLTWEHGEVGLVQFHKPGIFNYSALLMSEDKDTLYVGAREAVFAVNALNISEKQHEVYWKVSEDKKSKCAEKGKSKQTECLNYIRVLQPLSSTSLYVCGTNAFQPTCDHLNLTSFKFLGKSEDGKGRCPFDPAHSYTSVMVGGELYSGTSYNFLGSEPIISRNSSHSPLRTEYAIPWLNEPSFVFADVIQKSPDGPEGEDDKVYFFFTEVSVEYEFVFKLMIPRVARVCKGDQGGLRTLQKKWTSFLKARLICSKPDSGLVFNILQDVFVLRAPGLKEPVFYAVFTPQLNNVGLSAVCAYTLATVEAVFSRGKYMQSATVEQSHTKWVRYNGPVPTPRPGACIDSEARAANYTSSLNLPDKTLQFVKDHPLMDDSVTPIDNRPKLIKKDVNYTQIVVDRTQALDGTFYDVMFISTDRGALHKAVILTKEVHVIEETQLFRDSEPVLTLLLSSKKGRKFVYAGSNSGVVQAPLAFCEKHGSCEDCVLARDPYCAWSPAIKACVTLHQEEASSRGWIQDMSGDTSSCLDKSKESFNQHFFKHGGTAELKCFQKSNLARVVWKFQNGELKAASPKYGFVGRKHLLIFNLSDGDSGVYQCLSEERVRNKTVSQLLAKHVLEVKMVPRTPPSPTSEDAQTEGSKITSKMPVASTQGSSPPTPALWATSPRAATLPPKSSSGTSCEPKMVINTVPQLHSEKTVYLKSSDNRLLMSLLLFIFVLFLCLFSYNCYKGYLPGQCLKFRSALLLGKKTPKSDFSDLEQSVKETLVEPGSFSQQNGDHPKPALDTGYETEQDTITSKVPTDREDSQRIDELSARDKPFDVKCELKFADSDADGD", "experiment": "FACS"}, "CynoCD100-HEK293": {"molecular_target": "CynoCD100-HEK293 (cynomolgus monkey)", "experiment": "FACS"}, "[3]": {"molecular_target": "T2, full-length mouse CD100 protein …", "experiment": "FACS"}, "[4]": {"molecular_target": "T1, full-length human CD100 protein HuCD100 …", "experiment": "FACS", "remark": "listed apart in the source"}, "CynoCD100-His": {"molecular_target": "CynoCD100-His (cynomolgus monkey)", "experiment": "ELISA"}, "HuCD100-His": {"molecular_target": "HuCD100-His (human, UniProt Q92854 22-734)", "experiment": "ELISA"}, "MusCD100-His [5]": {"molecular_target": "T3, MusCD100-His (mouse, UniProt O09126 24-733)", "T3 chain": "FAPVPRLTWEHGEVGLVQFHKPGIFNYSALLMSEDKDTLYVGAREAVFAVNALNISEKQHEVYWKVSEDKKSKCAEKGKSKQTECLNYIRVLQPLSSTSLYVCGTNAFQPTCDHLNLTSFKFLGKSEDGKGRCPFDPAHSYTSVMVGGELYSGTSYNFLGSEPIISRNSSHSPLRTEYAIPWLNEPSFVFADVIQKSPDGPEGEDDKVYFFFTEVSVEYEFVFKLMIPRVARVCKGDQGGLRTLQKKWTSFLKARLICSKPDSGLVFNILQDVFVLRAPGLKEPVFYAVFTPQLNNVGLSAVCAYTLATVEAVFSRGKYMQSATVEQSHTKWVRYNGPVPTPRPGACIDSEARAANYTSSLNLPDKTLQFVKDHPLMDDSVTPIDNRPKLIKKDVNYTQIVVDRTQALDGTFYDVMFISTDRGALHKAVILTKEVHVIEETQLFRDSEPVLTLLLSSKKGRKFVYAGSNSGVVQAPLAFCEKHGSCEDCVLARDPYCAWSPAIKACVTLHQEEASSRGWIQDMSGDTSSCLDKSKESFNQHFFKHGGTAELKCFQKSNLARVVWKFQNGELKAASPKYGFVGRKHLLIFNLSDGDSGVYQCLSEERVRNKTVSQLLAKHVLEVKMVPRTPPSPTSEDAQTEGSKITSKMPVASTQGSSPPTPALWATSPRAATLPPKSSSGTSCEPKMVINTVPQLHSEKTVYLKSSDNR", "experiment": "ELISA"}, "MusCD100-Fc [6]": {"molecular_target": "T4, MusCD100-Fc (mouse, UniProt O09126 24-733, biotinylated in the Plexin binding and blocking assays (sites not given))", "T4 chain": "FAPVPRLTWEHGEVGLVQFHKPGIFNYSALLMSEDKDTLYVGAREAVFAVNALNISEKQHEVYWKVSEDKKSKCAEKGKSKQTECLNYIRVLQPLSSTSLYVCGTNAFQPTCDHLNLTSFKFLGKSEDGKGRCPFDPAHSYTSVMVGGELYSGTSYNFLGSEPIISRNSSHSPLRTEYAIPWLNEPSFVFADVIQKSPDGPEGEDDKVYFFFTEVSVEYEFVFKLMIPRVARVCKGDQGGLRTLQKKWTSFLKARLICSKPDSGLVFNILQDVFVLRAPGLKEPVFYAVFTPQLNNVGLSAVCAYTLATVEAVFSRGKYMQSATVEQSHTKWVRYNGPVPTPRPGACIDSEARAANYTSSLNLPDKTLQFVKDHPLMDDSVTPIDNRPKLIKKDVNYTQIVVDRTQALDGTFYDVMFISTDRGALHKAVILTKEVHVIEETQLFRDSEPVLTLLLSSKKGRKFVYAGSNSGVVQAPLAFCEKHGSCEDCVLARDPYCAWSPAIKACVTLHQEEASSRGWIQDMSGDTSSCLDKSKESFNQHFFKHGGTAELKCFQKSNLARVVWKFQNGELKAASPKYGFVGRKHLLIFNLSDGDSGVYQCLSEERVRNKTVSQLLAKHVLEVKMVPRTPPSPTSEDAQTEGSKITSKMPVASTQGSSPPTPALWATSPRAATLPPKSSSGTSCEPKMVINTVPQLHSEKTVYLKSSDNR", "experiment": "ELISA"}, "MusCD100-His [7]": {"molecular_target": "T3, MusCD100-His", "experiment": "ELISA; FIG. 5B"}, "[8]": {"molecular_target": "T1, full-length human CD100 protein HuCD100 …", "experiment": "FACS; HuPBMC cells"}, "[9]": {"molecular_target": "T5, HuCD100-Fc (in-house prepared) (human, UniProt Q92854 22-734, biotinylated in the Plexin binding and blocking assays (sites not given))", "experiment": "ELISA; first HuCD100-Fc row"}, "[10]": {"molecular_target": "T5, HuCD100-Fc (in-house prepared)", "experiment": "FACS blocking; HuPlexin-B1-HEK293, FIG. 12B"}, "MusCD100-Fc [11]": {"molecular_target": "T4, MusCD100-Fc", "experiment": "FACS blocking; MusPlexin-B1-HEK293, FIG. 12E"}, "[12]": {"molecular_target": "T5, HuCD100-Fc (in-house prepared)", "experiment": "FACS blocking; FIG. 8B, blocking of binding to HuPlexin-B2-HEK293"}}, "note": "Like-named read-outs stand apart in the source and are kept apart here.", "data": [{"binder": "Pepinemab (antibody, V domains shown) VH: QVQLVQSGAEVKKPGSSVKVSCKASGYSFSDYYMHWVRQAPGQGLEWMGQINPTTGGASYNQKFKGKATITVDKSTSTAYMELSSLRSEDTAVYYCARYYYGRHFDVWGQGTTVTVSS VL: DIVMTQSPDSLAVSLGERATINCKASQSVDYDGDSYMNWYQQKPGQPPKLLIYAASNLESGVPDRFSGSGSGTDFTLTISSLQAEDVAVYYCQQSNEDPYTFGQGTKLEIK", "values": [{"measurement": "EC50", "setting": "[1]", "value": 0.608, "unit": "nM"}, {"measurement": "EC50", "setting": "[2]", "value": 0.276, "unit": "nM"}, {"measurement": "EC50", "setting": "CynoCD100-HEK293", "value": 0.271, "unit": "nM"}, {"measurement": "EC50", "setting": "[3]", "value": 0.307, "unit": "nM"}, {"measurement": "EC50", "setting": "[4]", "value": 0.426, "unit": "nM"}, {"measurement": "EC50", "setting": "CynoCD100-His", "value": 0.0938, "unit": "nM"}, {"measurement": "EC50", "setting": "HuCD100-His", "value": 0.0804, "unit": "µg/mL"}, {"measurement": "EC50", "setting": "MusCD100-His [5]", "value": 0.174, "unit": "µg/mL"}, {"measurement": "EC50", "setting": "MusCD100-Fc [6]", "value": 0.136, "unit": "µg/mL"}, {"measurement": "EC50", "setting": "MusCD100-His [7]", "value": 0.205, "unit": "nM"}, {"measurement": "EC50", "setting": "[8]", "value": 0.412, "unit": "nM"}, {"measurement": "EC50", "setting": "[9]", "value": 0.0469, "unit": "µg/mL"}, {"measurement": "IC50", "setting": "[10]", "value": 1.31, "unit": "nM"}, {"measurement": "IC50", "setting": "MusCD100-Fc [11]", "value": 4.08, "unit": "nM"}, {"measurement": "IC50", "setting": "[12]", "value": 0.766, "unit": "nM"}]}]}
